Laboratory results from patent publication US20030124585A1, “Type II gonadotropin-releasing hormone receptor and polynucleotides encoding therefor” (Medical Research Council, priority 2000, published 2003).
Where two headings read alike, the source gives them in different places. Square brackets hold non-standard residues; d marks the D form. Ends that are not written are not given here.

T1: Marmoset Type II GnRH receptor (marmoset)
T1 chain: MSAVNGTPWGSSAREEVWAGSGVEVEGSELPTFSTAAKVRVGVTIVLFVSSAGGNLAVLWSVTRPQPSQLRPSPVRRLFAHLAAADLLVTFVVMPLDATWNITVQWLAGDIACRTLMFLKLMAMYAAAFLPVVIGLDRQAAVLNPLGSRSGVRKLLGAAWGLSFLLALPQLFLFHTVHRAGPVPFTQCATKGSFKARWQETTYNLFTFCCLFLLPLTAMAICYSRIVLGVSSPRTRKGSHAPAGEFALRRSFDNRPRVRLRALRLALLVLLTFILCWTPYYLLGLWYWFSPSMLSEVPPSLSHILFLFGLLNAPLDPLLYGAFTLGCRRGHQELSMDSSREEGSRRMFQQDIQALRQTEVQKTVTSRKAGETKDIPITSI

T2: human Type I GnRH receptor (human), P30968
T2 chain: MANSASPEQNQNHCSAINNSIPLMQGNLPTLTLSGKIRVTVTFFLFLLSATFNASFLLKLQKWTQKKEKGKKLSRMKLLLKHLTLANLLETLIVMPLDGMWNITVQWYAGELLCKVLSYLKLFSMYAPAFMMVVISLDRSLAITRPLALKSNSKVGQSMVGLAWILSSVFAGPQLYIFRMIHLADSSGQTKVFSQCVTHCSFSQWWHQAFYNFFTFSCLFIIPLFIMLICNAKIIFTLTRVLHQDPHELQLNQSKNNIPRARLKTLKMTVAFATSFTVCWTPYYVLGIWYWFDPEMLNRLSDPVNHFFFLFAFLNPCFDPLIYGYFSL

T3: Marmoset Type II GnRH receptor (marmoset)
T3 chain: T1 chain

T4: human Type I GnRH receptor (human, UniProt P30968 1-328)
T4 sequence (looked up): T2 chain

B1: [D-Arg^6]GnRH II (peptide, UniProt O43555 24-33, looked up)
peptide: QHWSH[dR]WYPG
modifications: ends and bridges not checked
notes: mature; Synthetic analogue of GnRH II; also called [D-Arg^6]GnRH Type II
B2: GnRH II (peptide, UniProt O43555 24-33, looked up)
peptide: QHWSHGWYPG
modifications: ends and bridges not checked
notes: mature; also called GnRH Type II; Type II GnRH

Tests used:
[1] = molecular target: T1, Marmoset Type II GnRH receptor …; test: competition with ^125I-[His^5,D-Tyr^6]GnRH on COS-7 cells expressing marmoset Type II GnRH-R (FIG. 4, n=2)
[2] = molecular target: T1, Marmoset Type II GnRH receptor …; test: competition with ^125I-[His^5-D-Tyr^6]GnRH I on COS-7 cells expressing the receptor (n = 3-6)
[3] = molecular target: T1, Marmoset Type II GnRH receptor …; test: cell-based or functional assay
[4] = molecular target: T2, human Type I GnRH receptor (human), …; test: competition with ^125I-[His^5-D-Tyr^6]GnRH I on COS-7 cells expressing the receptor (n = 3-6)
[5] = molecular target: T2, human Type I GnRH receptor (human), …; test: cell-based or functional assay
[6] = molecular target: T3, Marmoset Type II GnRH receptor; test: cell-based or functional assay
[7] = molecular target: T3, Marmoset Type II GnRH receptor; test: competition with ^125I-[His^5-D-Tyr^6]GnRH I on COS-7 cells expressing the receptor (n = 3-6)
[8] = molecular target: T3, Marmoset Type II GnRH receptor; test: cell-based or functional assay
[9] = molecular target: T4, human Type I GnRH receptor; test: cell-based or functional assay
[10] = molecular target: T3, Marmoset Type II GnRH receptor; test: receptor binding assay on COS-7 cells; reference human Type I GnRH receptor
[11] = molecular target: T3, Marmoset Type II GnRH receptor; test: receptor binding assay on COS-7 cells; reference mammalian GnRH I
[12] = molecular target: T4, human Type I GnRH receptor; test: competition with ^125I-[His^5-D-Tyr^6]GnRH I on COS-7 cells expressing the receptor (n = 3-6)
[13] = molecular target: T3, Marmoset Type II GnRH receptor; test: competition with ^125I-[His^5,D-Tyr^6]GnRH on COS-7 cells expressing marmoset Type II GnRH-R (FIG. 4, n=2)

| Binder | IC50 [1] [nM] | IC50 [2] [nM] | InsP production (EC50) [3] [nM] | total inositol phosphate production (EC50) [3] [nM] | IC50 [4] [nM] | InsP production (EC50) [5] [nM] | total inositol phosphate production (EC50) [6] [nM] | IC50 [7] [nM] | InsP production (EC50) [8] [nM] | InsP production (EC50) [9] [nM] | stimulation of inositol phosphate production, fold greater activity relative to mammalian GnRH I [6] [fold] | fold greater affinity than for the Type I receptor [10] [fold] | fold greater activity relative to mammalian GnRH I [11] [fold] | IC50 [12] [nM] | IC50 [13] [nM] |
| --- | --- | --- | --- | --- | --- | --- | --- | --- | --- | --- | --- | --- | --- | --- | --- |
| QHWSYGLRPG (peptide, UniProt P01148 24-33, looked up, modifications not checked) [Mammalian GnRH I, P01148 24-33] | 51.7 | 42.6 | 40.5 | 33.2 |  |  |  |  |  |  |  |  |  |  |  |
| QHWSYGWLPG (peptide, UniProt P01148 24-33, looked up, modifications not checked) [salmon GnRH, P01148 24-33] | 9.8 | 9.48 | 5.99 | 8.7 | 244 | 9.62 |  |  |  |  |  |  |  |  |  |
| B1 |  |  |  |  |  |  | 1.1 | 3.34 | 2.39 | 3.8 |  |  |  |  |  |
| B2 |  |  |  |  |  |  | 0.46 | 1.07 | 0.45 | 7.41 | 90 | 24 | 40 | 26.1 | 1.3 |
